# Results published in patent publication US20240344030A1 (CARTESIAN THERAPEUTICS, published 2024).
# B1: Vulcanodon-C1 anti-CD3 scFv (SEQ ID NO: 7), FLAG and His-tagged version (scFv)
# scFv: QVQLQQSGAELARPGASVKMSCKTSGYTFTGYYMHWVKQRPGQGLEWIGYINPSRGYTNYNQKFKDKATLTTDKSSSTAYMQLSSLTSEDSAVYYCARYYDDHYSLDYWGQGTTLTVSSGGGGSGGGGSGGGGSGGGGSQIVLTQSPAIMSASPGEKVTMTCRASQSISSYLNWYQQKSGTSPKRWIYDTSKVASGVPYRFSGSGSGTSYSLTISSMEAEDAATYYCQQWSSNPLTFGAGTKLELK
# notes: also called Var CDR1; not shown: FLAG and His tags
# B2: Vulcanodon-1 anti-CD3 scFv (SEQ ID NO: 2), FLAG and His-tagged version (scFv)
# scFv: QVQLVQSGAEVKKPGASVKVSCKASGYTFTRYTMHWVRQAPGQGLEWIGYINPSKGYTNYNQKFKGRVTMTADKSTSTAYMELSSLRSEDTAVYYCARYYDDHYSLDYWGQGTLVTVSSGGGGSGGGGSGGGGSGGGGSEIVMTQSPATLSLSPGERVTLSCRASSSVSYMNWYQQKSGTSPKRWIYDTSKVASGVPYRFSGSGSGTDFTLTISSLQAEDEATYYCQQWSSNPLTFGQGTKLEIK
# notes: also called Var 1; not shown: FLAG and His tags
# B3: Vulcanodon-2 anti-CD3 scFv (SEQ ID NO: 3), FLAG and His-tagged version (scFv)
# scFv: QVQLVQSGAEVKKPGASVKVSCKASGYTFTRYTMHWVRQAPGQGLEWIGYINPSRGYTNYNQKFKGRVTMTADKSTSTAYMELSSLRSEDTAVYYCARYYDDHYSLDYWGQGTTVTVSSGGGGSGGGGSGGGGSGGGGSEIVMTQSPATLSLSPGERVTLSCRASSSVSYMNWYQQKSGTSPKRWIYDTSKVASGVPYRFSGSGSGTDFTLTISSLQAEDEATYYCQQWSSNPLTFGAGTKLEIK
# notes: also called Var 2; not shown: FLAG and His tags
# B4: Vulcanodon-4 anti-CD3 scFv (SEQ ID NO: 5), FLAG and His-tagged version (scFv)
# scFv: QVQLVQSGAEVKKPGASVKVSCKASGYTFTRYTMHWVKQRPGQGLEWIGYINPSKGYTNYNQKFKGRVTMTADKSTSTAYMELSSLRSEDTAVYYCARYYDDHYSLDYWGQGTLVTVSSGGGGSGGGGSGGGGSGGGGSQIVLTQSPAIMSASPGEKVTMTCRASSSVSYMNWYQQKSGTSPKRWIYDTSKVASGVPYRFSGSGSGTDFTLTISSLQAEDEATYYCQQWSSNPLTFGQGTKLEIK
# notes: also called Var 4; not shown: FLAG and His tags
# B5: Vulcanodon-3 anti-CD3 scFv (SEQ ID NO: 4), FLAG and His-tagged version (scFv)
# scFv: QVQLVQSGAEVKKLGASVKVSCKASGYTFTRYTMHWVKQAPGQGLEWIGYINPSRGYTNYNQKFQGRVTMTRDTSISTAYMELSRLRSDDTAVYYCARYYDDHYSLDYWGQGTLVTVSSGGGGSGGGGSGGGGSGGGGSDIQMTQSPSSLSASVGDRVTITCRASSSVSYMNWYQQKSGTSPKRWIYDTSKVASGVPYRFSGSGSGTDFTLTISSLQPEDFATYYCQQWSSNPLTFGAGTKLEIK
# notes: also called Var 3; not shown: FLAG and His tags
# B6: bispecific antibody of SEQ ID NO: 138 (with a C-terminal Myc-Flag tag of SEQ ID NO: 141) (bispecific antibody)
# chain: DIVLTQSPASLAVSPGQRATISCRASESVSFLGINLIHWYQQKPGQPPKLLIYLASNLETGVPARFSGSGSGTDFTLTISSVEPEDTANYYCLQSRTLPRTFGQGTKVEIKGSTSGSGKPGSGEGSTKGQIQLVQSGPELKKPGGSVKISCKASGYTFTSYSINWVRQAPGKGLEWVGWINTETREPAYAQGFTGRFTFSADTSKSMAYLQINSLRAEDTAVYYCALDYLYSLDFWGQGTLVTVSSGGGGSQVQLVQSGAEVKKPGASVKVSCKASGYTFTRYTMHWVRQAPGQGLEWIGYINPSKGYTNYNQKFKGRVTMTADKSTSTAYMELSSLRSEDTAVYYCARYYDDHYSLDYWGQGTLVTVSSGGGGSGGGGSGGGGSGGGGSEIVMTQSPATLSLSPGERVTLSCRASSSVSYMNWYQQKSGTSPKRWIYDTSKVASGVPYRFSGSGSGTDFTLTISSLQAEDEATYYCQQWSSNPLTFGQGTKLEIKSSGGSGGSGGSGGSGGSGGSGGSGGSGGSGSDIVLTQSPASLAVSPGQRATISCRASESVSFLGINLIHWYQQKPGQPPKLLIYLASNLETGVPARFSGSGSGTDFTLTISSVEPEDTANYYCLQSRTLPRTFGQGTKVEIKGSTSGSGKPGSGEGSTKGQIQLVQSGPELKKPGGSVKISCKASGYTFTSYSINWVRQAPGKGLEWVGWINTETREPAYAQGFTGRFTFSADTSKSMAYLQINSLRAEDTAVYYCALDYLYSLDFWGQGTLVTVSSGGSLEQKLISEEDLAANDILDYKDDDDKV
# notes: Single chain: anti-BCMA scFv, anti-CD3 scFv, anti-BCMA scFv; also called DC10xP15-MycDDK; DC10xP15
# B7: Vulcanodon-C2 anti-CD3 scFv (SEQ ID NO: 8), FLAG and His-tagged version (scFv)
# scFv: QVQLQQSGAELARPGASVKMSCKTSGYTFTRYTMHWVKQRPGQGLEWMGIINPSGGSTSYAQKFKDKATLTTDKSSSTAYMQLSSLTSEDSAVYYCARYYDDHYSLDYWGQGTTLTVSSGGGGSGGGGSGGGGSGGGGSQIVLTQSPAIMSASPGEKVTMTCRASSSVSYMNWYQQKSGQAPRLLIYGASTRATGIPYRFSGSGSGTSYSLTISSMEAEDAATYYCQQWSSNPLTFGAGTKLELK
# notes: also called Var CDR2; not shown: FLAG and His tags
# What was measured:
# [1] = molecular target: T1, CD3 on (CD3+) T cells (human, UniProt P07766 23-207; P09693 23-182; P04234 22-171; P20963 22-164); assay: flow cytometry; 10 µg/mL scFv on 50,000 CD3+ T cells; anti-FLAG FITC detection
# T1 construct: whole, on cells; also called CD3 protein multi-subunit complex
# T1 sequence (P07766 23-207, form in doubt, chain 1 of 4): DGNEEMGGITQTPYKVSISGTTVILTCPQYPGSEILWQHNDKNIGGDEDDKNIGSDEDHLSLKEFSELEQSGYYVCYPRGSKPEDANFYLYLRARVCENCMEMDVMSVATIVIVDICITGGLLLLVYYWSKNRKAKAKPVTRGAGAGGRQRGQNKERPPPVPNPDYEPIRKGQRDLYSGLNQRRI
# T1 sequence (P09693 23-182, form in doubt, chain 2 of 4): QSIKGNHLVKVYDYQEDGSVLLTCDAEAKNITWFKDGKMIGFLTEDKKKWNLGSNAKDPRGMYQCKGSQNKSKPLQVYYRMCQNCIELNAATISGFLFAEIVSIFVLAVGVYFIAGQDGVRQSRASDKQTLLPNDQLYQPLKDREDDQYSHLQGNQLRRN
# T1 sequence (P04234 22-171, form in doubt, chain 3 of 4): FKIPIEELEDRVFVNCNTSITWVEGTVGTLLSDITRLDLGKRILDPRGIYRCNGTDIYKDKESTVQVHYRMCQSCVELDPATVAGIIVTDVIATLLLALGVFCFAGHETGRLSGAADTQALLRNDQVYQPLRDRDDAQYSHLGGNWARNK
# T1 sequence (P20963 22-164, form in doubt, chain 4 of 4): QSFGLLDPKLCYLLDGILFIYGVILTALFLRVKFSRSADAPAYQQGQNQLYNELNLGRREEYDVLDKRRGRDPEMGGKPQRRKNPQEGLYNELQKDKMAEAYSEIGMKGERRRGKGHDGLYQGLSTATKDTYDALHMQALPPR
# [2] = molecular target: T2, rhBCMA-Fc Chimera (R&D Systems 193-BC-050) (human, Disulfide-linked homodimer (the 25th table, row 5); one copy of the chain is given.); assay: BLI (Octet) scouting; rhBCMA-Fc captured on AHC sensor; analyte 100 nM; 1:1 local fit
# T2 construct: Disulfide-linked dimer, bought; also called immobilized BCMA
# T2 sequence (chain, as listed by the source mutant limits assumed): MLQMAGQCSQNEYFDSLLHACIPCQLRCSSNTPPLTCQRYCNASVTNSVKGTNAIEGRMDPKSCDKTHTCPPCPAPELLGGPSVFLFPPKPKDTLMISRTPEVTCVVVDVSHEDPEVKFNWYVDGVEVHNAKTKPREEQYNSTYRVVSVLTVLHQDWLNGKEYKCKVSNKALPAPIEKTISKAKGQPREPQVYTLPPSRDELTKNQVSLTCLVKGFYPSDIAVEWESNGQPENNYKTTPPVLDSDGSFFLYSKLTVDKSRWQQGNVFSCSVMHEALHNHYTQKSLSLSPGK
# [3] = molecular target: T3, Human CD3ε&CD3δ heterodimeric Fc Chimera (ACRO Biosystems CDD-H52W0) (human, UniProt P07766 22-126, Disulfide-linked heterodimer through the Fc parts that are left off.); assay: BLI (Octet) scouting; rhCD3ε/δ-Fc captured on AHC sensor; analyte 2000 nM; 1:1 local fit
# T3 construct: Disulfide-linked heterodimer, bought; also called rhCD3ε/δ-Fc; rhCD3ε/CD3δ-Fc
# T3 sequence (P07766 22-126 limits assumed, stated change not applied, chain 1 of 2): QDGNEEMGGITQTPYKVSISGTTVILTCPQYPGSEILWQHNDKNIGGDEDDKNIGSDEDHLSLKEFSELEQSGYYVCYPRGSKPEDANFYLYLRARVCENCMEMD
# T3 sequence (delta, as listed by the source mutant limits assumed, chain 2 of 2): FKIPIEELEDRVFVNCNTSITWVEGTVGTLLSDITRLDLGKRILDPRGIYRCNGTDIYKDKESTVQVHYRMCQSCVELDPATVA
# [4] = molecular target: T2, rhBCMA-Fc Chimera (R&D Systems …); assay: BLI full kinetics; rhBCMA-Fc captured on AHC sensor; analyte 1.56-50 nM; bivalent (avidity)
# [5] = molecular target: T3, Human CD3ε&CD3δ heterodimeric Fc …; assay: BLI full kinetics; rhCD3ε/δ-Fc captured on AHC sensor; analyte 15.6-125 nM; monovalent (affinity)
binder,measurement,setting,value
B1,CD3 Binding (increase in MFI),[1],~0 MFI
B2,CD3 Binding (increase in MFI),[1],20 MFI
B3,CD3 Binding (increase in MFI),[1],24 MFI
B4,CD3 Binding (increase in MFI),[1],27 MFI
B5,CD3 Binding (increase in MFI),[1],24 MFI
B6,Kd,[2],0.116 nM
same,Kd,[3],9.76 nM
same,Kd,[4],< 0.001 nM
same,koff,[4],< 1e-07 s⁻¹
same,kon,[4],226000 M⁻¹ s⁻¹
same,Kd,[5],3.02 nM
same,koff,[5],0.00199 s⁻¹
same,kon,[5],660000 M⁻¹ s⁻¹
B7,CD3 Binding (increase in MFI),[1],~0 MFI
